Data reported in the RNAGym collection of RNA variant scans (doi:10.1073/pnas.2313332121).
This sample holds only a part of the variants without activity.

B1: TPR 5TU (parent)
chain: GGAUCUUCUCGAUCUAACAAAAAAGACAAAUCUGCCACAAAGCUUGAGAGCAUCUUCGGAUGCAGAGGCGGCAGCCUUCGGUGGCGCGAUAGCGCCAACGUUCUCAACUAUGACACGCAAAACGCGUGCUCCGUUGAAUGGAGUUUAUCAUG

Variants of: B1
Experiment: polymerase ribozyme fitness, log enrichment relative to wild type (log ratio); higher = more active; in vitro selection for triplet polymerase activity
How it was run: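 The heterodimeric triplet polymerase ribozyme's subunits were each mutagenized into PCR-built libraries and transcribed. Every library was selected once, in triplicate, by annealing with a biotinylated primer, the partner subunit and triplets, incubating frozen at −7 °C, gel-excising extended constructs, capturing on streptavidin beads and running RT-PCR. Input and output libraries were Illumina-sequenced, with genotypes kept only at ≥10 input reads and ≥1 read per output. Fitness, from inverse-variance-weighted replicate averages, is the base-2 logarithm of genotype enrichment over wild-type enrichment.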
In the case of U7G A21C C32A A49C U53C C69U A142C, the “polymerase ribozyme fitness (log ratio)” value is reported as no more than -4.2. For U7C G46A G65U C76A U77G C79A G94A C96A U135A U144G G152U, the “polymerase ribozyme fitness (log ratio)” value was no more than -4.2. With U7G A20U U53A G88U C96A A113U C114U A122U U139A A142U the “polymerase ribozyme fitness (log ratio)” value was no more than -4.2. For U7A A22G C72A A122U C131A, the “polymerase ribozyme fitness (log ratio)” value was no more than -4.2. With U7A G92U the “polymerase ribozyme fitness (log ratio)” value was -3.96. In the case of U7A G83A A121G U145G U148G, the “polymerase ribozyme fitness (log ratio)” value is reported as no more than -4.2. With U7G C10A C51A U82G G88A C108U U111C G133U G143C the “polymerase ribozyme fitness (log ratio)” value was no more than -4.2. In the case of U7C A23U C87A A89G C116U C125U, the “polymerase ribozyme fitness (log ratio)” value is reported as no more than -4.2. For U6G A40U A66G U82A C96A G100U, the “polymerase ribozyme fitness (log ratio)” value was no more than -4.2. In the case of U6G C99G G141C, the “polymerase ribozyme fitness (log ratio)” value is reported as -2.05. In the case of U7A C35A C87A C93A, the “polymerase ribozyme fitness (log ratio)” value is reported as no more than -4.2. For C8A A49G G74A G86U G141U U148G, the “polymerase ribozyme fitness (log ratio)” value was no more than -4.2. For U6G C10G G50C U55A G58A C72G C95U C96U U144G U148A, the “polymerase ribozyme fitness (log ratio)” value was no more than -4.2. For U7G G50U, the “polymerase ribozyme fitness (log ratio)” value was -3.02. With U7A A26G C75G C93A the “polymerase ribozyme fitness (log ratio)” value was -4.13. In the case of U6G A24U A119U G136U, the “polymerase ribozyme fitness (log ratio)” value is reported as -3.74. In the case of U7G G50C C87G C125U G133A G140A A142U, the “polymerase ribozyme fitness (log ratio)” value is reported as no more than -4.2. For U7A G94A, the “polymerase ribozyme fitness (log ratio)” value was -3.07. For U7A A17U A19C C38U G58U G86A G92C, the “polymerase ribozyme fitness (log ratio)” value was no more than -4.2. In the case of U7G U15A A41U A66C G94U C99G G133U U148G, the “polymerase ribozyme fitness (log ratio)” value is reported as no more than -4.2. For C8A A47G A49C G59C A60U G84A C125G, the “polymerase ribozyme fitness (log ratio)” value was no more than -4.2. For U7C C10U U55A G62A G65C U78G C96A, the “polymerase ribozyme fitness (log ratio)” value was no more than -4.2. For U7G A30C C32G C51U U144A, the “polymerase ribozyme fitness (log ratio)” value was no more than -4.2. In the case of U7C A20C A49C U77C A91U, the “polymerase ribozyme fitness (log ratio)” value is reported as no more than -4.2. With U6G C10G C87G the “polymerase ribozyme fitness (log ratio)” value was no more than -4.2. In the case of U6G A21U A26G A40C A66G A107U U135A G141A, the “polymerase ribozyme fitness (log ratio)” value is reported as no more than -4.2. For U7G A21C C36U C54U C79G G83A U144A, the “polymerase ribozyme fitness (log ratio)” value was no more than -4.2. For U7G C54U G92U, the “polymerase ribozyme fitness (log ratio)” value was -2.21. For U7A C8G U13G U90G C95G U134A, the “polymerase ribozyme fitness (log ratio)” value was no more than -4.2. In the case of U7C A73G U82A G136C, the “polymerase ribozyme fitness (log ratio)” value is reported as no more than -4.2. With U6G U55A the “polymerase ribozyme fitness (log ratio)” value was 0.402. With U7A G71A C96G the “polymerase ribozyme fitness (log ratio)” value was no more than -4.2. For C8A A17G U55A C93A G126U G140A, the “polymerase ribozyme fitness (log ratio)” value was no more than -4.2. In the case of U7G C63A C96G, the “polymerase ribozyme fitness (log ratio)” value is reported as no more than -4.2. In the case of U7G U53A A147G, the “polymerase ribozyme fitness (log ratio)” value is reported as no more than -4.2. In the case of U7A A22C A24U C54G G83A, the “polymerase ribozyme fitness (log ratio)” value is reported as no more than -4.2. For U6G U13G A16G C85G G86A A142G, the “polymerase ribozyme fitness (log ratio)” value was no more than -4.2. In the case of U7A A29C C85U C87U G143C A150G, the “polymerase ribozyme fitness (log ratio)” value is reported as no more than -4.2. With U7G C8G U45G A66U C85U A138U the “polymerase ribozyme fitness (log ratio)” value was no more than -4.2. For C8A A12G A17G U56A A97U A147C, the “polymerase ribozyme fitness (log ratio)” value was no more than -4.2. For U7A A49C C103A U139A, the “polymerase ribozyme fitness (log ratio)” value was no more than -4.2. For U7G A40U C43G A91U, the “polymerase ribozyme fitness (log ratio)” value was no more than -4.2. For U7G A19G, the “polymerase ribozyme fitness (log ratio)” value was -2.47. In the case of U7G A40G A52C G65U A73G U82A C93G U134A U148G, the “polymerase ribozyme fitness (log ratio)” value is reported as no more than -4.2. In the case of C8A A39G G84U A106U C149G, the “polymerase ribozyme fitness (log ratio)” value is reported as no more than -4.2. For U7C A23G U82G G83A U146G A150G G152C, the “polymerase ribozyme fitness (log ratio)” value was no more than -4.2. In the case of U7C C57G A98G, the “polymerase ribozyme fitness (log ratio)” value is reported as -3.3. With C8A A17C A26C A40C C87U U144G the “polymerase ribozyme fitness (log ratio)” value was no more than -4.2. With U6G C8A G48A U56G C75U G80C G83U G92U C93A C99U G100U the “polymerase ribozyme fitness (log ratio)” value was no more than -4.2. In the case of U7G C18U A19U A28U C85A C87U A97U, the “polymerase ribozyme fitness (log ratio)” value is reported as no more than -4.2. In the case of U7A U55A C85U C114A G136C, the “polymerase ribozyme fitness (log ratio)” value is reported as no more than -4.2. In the case of U6G A28U, the “polymerase ribozyme fitness (log ratio)” value is reported as -3.76. For C8A A64C C72A C95U C116G A121C A138C, the “polymerase ribozyme fitness (log ratio)” value was no more than -4.2. For U7A U9A A98G A121G, the “polymerase ribozyme fitness (log ratio)” value was no more than -4.2. For U7G G11A C18A A37G G50A C85U G112U, the “polymerase ribozyme fitness (log ratio)” value was no more than -4.2. For U6G C35U G58C C96U A113C U135C A147U, the “polymerase ribozyme fitness (log ratio)” value was no more than -4.2. With U7G A12G A52U C57A A73G C93G the “polymerase ribozyme fitness (log ratio)” value was no more than -4.2. In the case of U6G A49C C51U G88A A107U A142G, the “polymerase ribozyme fitness (log ratio)” value is reported as no more than -4.2. In the case of U7A A26U C27U A41U U55G C93U, the “polymerase ribozyme fitness (log ratio)” value is reported as no more than -4.2. In the case of U7C U56A G94A A98G, the “polymerase ribozyme fitness (log ratio)” value is reported as -3.41. With U7C C27U A49C A52G C79A C87G C93G C96A A97U C99U C108U A120U the “polymerase ribozyme fitness (log ratio)” value was -4.18. In the case of U6G C14U, the “polymerase ribozyme fitness (log ratio)” value is reported as -1.09. With C8A A12U C35G G92U C103G the “polymerase ribozyme fitness (log ratio)” value was -3.99. With U7A C14A A23C C75G C85U the “polymerase ribozyme fitness (log ratio)” value was no more than -4.2. With U7A A28U A40U U55A C57A C76U U78G C96G C123G the “polymerase ribozyme fitness (log ratio)” value was no more than -4.2. In the case of U6G A29G, the “polymerase ribozyme fitness (log ratio)” value is reported as -3.97. With U6G C8G A47C G59U A91C C96G C132G G133A the “polymerase ribozyme fitness (log ratio)” value was no more than -4.2. With U7G A23G U53A C99G C116A C125G A137C the “polymerase ribozyme fitness (log ratio)” value was no more than -4.2. With U6G A28C C76G G92U the “polymerase ribozyme fitness (log ratio)” value was no more than -4.2. With C8A C10U U33A G81U C87A C103G A147C the “polymerase ribozyme fitness (log ratio)” value was no more than -4.2. With U7C C76U G84A A119U U145G the “polymerase ribozyme fitness (log ratio)” value was -3.32. With C8A A73G C93A U146C the “polymerase ribozyme fitness (log ratio)” value was -4.17. In the case of U6G G50U C85U C116U, the “polymerase ribozyme fitness (log ratio)” value is reported as 0.202. In the case of C8A A47G A49G A52C U55A G88U U104A A119U U146C U148A, the “polymerase ribozyme fitness (log ratio)” value is reported as no more than -4.2. In the case of U7G U45A C57U C76A G83A G84A, the “polymerase ribozyme fitness (log ratio)” value is reported as no more than -4.2. With C8A C14U C54A C99A the “polymerase ribozyme fitness (log ratio)” value was no more than -4.2. In the case of U7A U55A, the “polymerase ribozyme fitness (log ratio)” value is reported as -3.25. In the case of U6G C35U C75A A98G A121U, the “polymerase ribozyme fitness (log ratio)” value is reported as no more than -4.2. In the case of U7G U130A, the “polymerase ribozyme fitness (log ratio)” value is reported as -4.18. With U6G A40U A49U A66C G94U A98U U134C G140A the “polymerase ribozyme fitness (log ratio)” value was no more than -4.2. For U7A C18U A91U A97U U102C U144G, the “polymerase ribozyme fitness (log ratio)” value was no more than -4.2. With U6G U31G U61A C95A G136A the “polymerase ribozyme fitness (log ratio)” value was -1.38. In the case of C8A A41G, the “polymerase ribozyme fitness (log ratio)” value is reported as -4.12.
